± gives the uncertainty stated by the source.

This note sets out measurements from the Human Domainome abundance scans (Beltran et al. 2025).

To fix the notation:
B1: Tumor protein p73, residues 487 to 549; numbered along this chain, O15350 (parent)
chain: YHADPSLVSFLTGLGCPNCIEYFTSQGLQSIYHLQNLTIEDLGALKIPEQYRMTIWRGLQDLK

Variants of B1 are the subject of the series. Briefly: abundance fitness (aPCA) (normalised: wild type 0, dead -1); higher = more abundant; growth selection in yeast, the domain comes from the species named. The conditions noted are these: Homo sapiens.
In the case of YHADPSLVSFLTGLGCPNCIEYFTSQGLGSIYHLQNLTIEDLGALKIPEQYRMTIWRGLQDLK [Q29G], the abundance fitness was -0.006 ± 0.03.
Turning to YHADPSLVSFLTGLGCPNCIEYFTSQGLHSIYHLQNLTIEDLGALKIPEQYRMTIWRGLQDLK [Q29H], the abundance fitness is 0.102 ± 0.076.
For YHADPSLVSFLTGLGCPNCIEYFTSQGLPSIYHLQNLTIEDLGALKIPEQYRMTIWRGLQDLK [Q29P], the abundance fitness turned out to be 0.006 ± 0.037.
To YHADPSLVSFLTGLGCPNCIEYFTSQGLVSIYHLQNLTIEDLGALKIPEQYRMTIWRGLQDLK [Q29V] belongs -0.016 ± 0.031.
To YHADPSLVSFLTGLGCPNCIEYFTSQGLASIYHLQNLTIEDLGALKIPEQYRMTIWRGLQDLK [Q29A] belongs -0.047 ± 0.037; to YHADPSLVSFLTGLGCPNCIEYFTSQGLLSIYHLQNLTIEDLGALKIPEQYRMTIWRGLQDLK [Q29L], 0.044 ± 0.028; to YHADPSLVSFLTGLGCPNCIEYFTSQGLSSIYHLQNLTIEDLGALKIPEQYRMTIWRGLQDLK [Q29S], 0.053 ± 0.033.
To YHADPSLVSFLTGLGCPNCIEYFTSQGLMSIYHLQNLTIEDLGALKIPEQYRMTIWRGLQDLK [Q29M] belongs 0.03 ± 0.04; to YHADPSLVSFLTGLGCPNCIEYFTSQGLQSFYHLQNLTIEDLGALKIPEQYRMTIWRGLQDLK [I31F], -0.294 ± 0.21.
Take YHADPSLVSFLTGLGCPNCIEYFTSQGLQSMYHLQNLTIEDLGALKIPEQYRMTIWRGLQDLK [I31M]: the abundance fitness came to 0.012 ± 0.053.
To YHADPSLVSFLTGLGCPNCIEYFTSQGLQSRYHLQNLTIEDLGALKIPEQYRMTIWRGLQDLK [I31R] belongs -0.057 ± 0.033; to YHADPSLVSFLTGLGCPNCIEYFTSQGLQSPYHLQNLTIEDLGALKIPEQYRMTIWRGLQDLK [I31P], -0.048 ± 0.052.
To YHADPSLVSFLTGLGCPNCIEYFTSQGLQSNYHLQNLTIEDLGALKIPEQYRMTIWRGLQDLK [I31N] belongs -0.086 ± 0.051; to YHADPSLVSFLTGLGCPNCIEYFTSQGLQSQYHLQNLTIEDLGALKIPEQYRMTIWRGLQDLK [I31Q], 0.026 ± 0.052.
On to YHADPSLVSFLTGLGCPNCIEYFTSQGLQSAYHLQNLTIEDLGALKIPEQYRMTIWRGLQDLK [I31A], for which the abundance fitness was determined as 0.004 ± 0.043.
To YHADPSLVSFLTGLGCPNCIEYFTSQGLQSHYHLQNLTIEDLGALKIPEQYRMTIWRGLQDLK [I31H] belongs -0.156 ± 0.06.
For the variant YHADPSLVSFLTGLGCPNCIEYFTSQGLQSWYHLQNLTIEDLGALKIPEQYRMTIWRGLQDLK [I31W], the abundance fitness is -0.025 ± 0.038.
As for YHADPSLVSFLTGLGCPNCIEYFTSQGLQSEYHLQNLTIEDLGALKIPEQYRMTIWRGLQDLK [I31E], the abundance fitness was -0.129 ± 0.045.
To YHADPSLVSFLTGLGCPNCIEYFTSQGLQSLYHLQNLTIEDLGALKIPEQYRMTIWRGLQDLK [I31L] belongs 0.035 ± 0.037.
As for YHADPSLVSFLTGLGCPNCIEYFTSQGLQSYYHLQNLTIEDLGALKIPEQYRMTIWRGLQDLK [I31Y], the abundance fitness was -0.133 ± 0.064.
Consider YHADPSLVSFLTGLGCPNCIEYFTSQGLQSGYHLQNLTIEDLGALKIPEQYRMTIWRGLQDLK [I31G], for which the abundance fitness was -0.199 ± 0.038.
To YHADPSLVSFLTGLGCPNCIEYFTSQGLQSCYHLQNLTIEDLGALKIPEQYRMTIWRGLQDLK [I31C] belongs -0.011 ± 0.087; to YHADPSLVSFLTGLGCPNCIEYFTSQGLQSVYHLQNLTIEDLGALKIPEQYRMTIWRGLQDLK [I31V], 0.042 ± 0.036; to YHADPSLVSFLTGLGCPNCIEYFTSQGLQSDYHLQNLTIEDLGALKIPEQYRMTIWRGLQDLK [I31D], -0.269 ± 0.068.
YHADPSLVSFLTGLGCPNCIEYFTSQGLQSTYHLQNLTIEDLGALKIPEQYRMTIWRGLQDLK [I31T]: the abundance fitness was -0.005 ± 0.05.
To YHADPSLVSFLTGLGCPNCIEYFTSQGLQSKYHLQNLTIEDLGALKIPEQYRMTIWRGLQDLK [I31K] belongs -0.11 ± 0.051; to YHADPSLVSFLTGLGCPNCIEYFTSYGLQSIYHLQNLTIEDLGALKIPEQYRMTIWRGLQDLK [Q26Y], -0.32 ± 0.098; to YHADPSLVSFLTGLGCPNCIEYFTSWGLQSIYHLQNLTIEDLGALKIPEQYRMTIWRGLQDLK [Q26W], -0.286 ± 0.042.
To YHADPSLVSFLTGLGCPNCIEYFTSQKLQSIYHLQNLTIEDLGALKIPEQYRMTIWRGLQDLK [G27K] belongs -0.089 ± 0.043.
For YHADPSLVSFLTGLGCPNCIEYFTSQFLQSIYHLQNLTIEDLGALKIPEQYRMTIWRGLQDLK [G27F], the abundance fitness is -1 ± 0.22.
To YHADPSLVSFLTGLGCPNCIEYFTSQCLQSIYHLQNLTIEDLGALKIPEQYRMTIWRGLQDLK [G27C] belongs -0.448 ± 0.059; to YHADPSLVSFLTGLGCPNCIEYFTSQSLQSIYHLQNLTIEDLGALKIPEQYRMTIWRGLQDLK [G27S], -0.07 ± 0.035; to YHADPSLVSFLTGLGCPNCIEYFTSQRLQSIYHLQNLTIEDLGALKIPEQYRMTIWRGLQDLK [G27R], -0.024 ± 0.025.
Regarding YHADPSLVSFLTGLGCPNCIEYFTSQDLQSIYHLQNLTIEDLGALKIPEQYRMTIWRGLQDLK [G27D], the abundance fitness turned out to be 0.06 ± 0.044.
To YHADPSLVSFLTGLGCPNCIEYFTSQNLQSIYHLQNLTIEDLGALKIPEQYRMTIWRGLQDLK [G27N] belongs -0.055 ± 0.22; to YHADPSLVSFLTGLGCPNCIEYFTSQALQSIYHLQNLTIEDLGALKIPEQYRMTIWRGLQDLK [G27A], -0.304 ± 0.075; to YHADPSLVSFLTGLGCPNCIEYFTSQTLQSIYHLQNLTIEDLGALKIPEQYRMTIWRGLQDLK [G27T], -0.172 ± 0.075.
For YHADPSLVSFLTGLGCPNCIEYFTSQLLQSIYHLQNLTIEDLGALKIPEQYRMTIWRGLQDLK [G27L], the abundance fitness is -1.02 ± 0.1.
Consider YHADPSLVSFLTGLGCPNCIEYFTSQQLQSIYHLQNLTIEDLGALKIPEQYRMTIWRGLQDLK [G27Q], for which the abundance fitness was -0.05 ± 0.051.
In the case of YHADPSLVSFLTGLGCPNCIEYFTSQVLQSIYHLQNLTIEDLGALKIPEQYRMTIWRGLQDLK [G27V], the abundance fitness was -0.61 ± 0.084.
For YHADPSLVSFLTGLGCPNCIEYFTSQPLQSIYHLQNLTIEDLGALKIPEQYRMTIWRGLQDLK [G27P], the abundance fitness was -0.367 ± 0.065.
To YHADPSLVSFLTGLGCPNCIEYFTSQMLQSIYHLQNLTIEDLGALKIPEQYRMTIWRGLQDLK [G27M] belongs -0.716 ± 0.069; to YHADPSLVSFLTGLGCPNCIEYFTSQHLQSIYHLQNLTIEDLGALKIPEQYRMTIWRGLQDLK [G27H], -0.004 ± 0.053.
